The record followed here is article PMC11910620 (Nature Communications, 2025).

T1: Msn5 (S. cerevisiae exportin), wild type (S. cerevisiae, UniProt P52918 1-1224)
T1 sequence: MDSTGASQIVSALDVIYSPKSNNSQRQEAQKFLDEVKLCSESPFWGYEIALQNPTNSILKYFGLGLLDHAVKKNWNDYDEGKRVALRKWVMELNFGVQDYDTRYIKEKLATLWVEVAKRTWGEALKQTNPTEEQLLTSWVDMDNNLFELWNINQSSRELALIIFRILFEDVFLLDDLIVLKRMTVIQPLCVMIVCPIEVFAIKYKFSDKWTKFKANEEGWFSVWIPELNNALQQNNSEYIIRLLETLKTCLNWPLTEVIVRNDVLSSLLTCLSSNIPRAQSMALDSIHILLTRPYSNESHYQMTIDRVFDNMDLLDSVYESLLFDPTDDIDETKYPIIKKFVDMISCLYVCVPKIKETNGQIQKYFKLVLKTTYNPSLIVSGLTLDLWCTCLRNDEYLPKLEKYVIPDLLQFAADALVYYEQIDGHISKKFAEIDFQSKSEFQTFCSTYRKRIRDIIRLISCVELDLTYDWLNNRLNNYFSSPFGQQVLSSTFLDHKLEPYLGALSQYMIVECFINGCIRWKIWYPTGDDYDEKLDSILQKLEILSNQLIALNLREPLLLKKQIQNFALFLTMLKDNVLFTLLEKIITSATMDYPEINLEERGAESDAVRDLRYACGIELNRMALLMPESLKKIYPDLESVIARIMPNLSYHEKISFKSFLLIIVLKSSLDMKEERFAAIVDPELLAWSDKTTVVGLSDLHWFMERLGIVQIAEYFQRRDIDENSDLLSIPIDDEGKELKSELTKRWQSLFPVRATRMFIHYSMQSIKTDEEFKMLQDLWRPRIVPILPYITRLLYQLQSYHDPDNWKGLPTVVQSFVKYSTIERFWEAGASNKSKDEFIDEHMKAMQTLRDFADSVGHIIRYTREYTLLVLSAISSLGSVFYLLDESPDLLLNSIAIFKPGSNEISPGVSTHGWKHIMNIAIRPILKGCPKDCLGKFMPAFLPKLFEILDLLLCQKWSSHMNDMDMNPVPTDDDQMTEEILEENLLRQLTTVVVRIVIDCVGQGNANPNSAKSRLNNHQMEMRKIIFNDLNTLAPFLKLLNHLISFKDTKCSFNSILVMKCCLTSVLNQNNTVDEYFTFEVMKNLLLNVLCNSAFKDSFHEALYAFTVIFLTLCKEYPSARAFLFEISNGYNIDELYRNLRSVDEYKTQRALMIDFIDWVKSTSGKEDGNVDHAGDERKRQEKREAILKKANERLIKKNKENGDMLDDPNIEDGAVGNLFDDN

B1: Msn5 (S. cerevisiae exportin), wild type (natural protein)
chain: MDSTGASQIVSALDVIYSPKSNNSQRQEAQKFLDEVKLCSESPFWGYEIALQNPTNSILKYFGLGLLDHAVKKNWNDYDEGKRVALRKWVMELNFGVQDYDTRYIKEKLATLWVEVAKRTWGEALKQTNPTEEQLLTSWVDMDNNLFELWNINQSSRELALIIFRILFEDVFLLDDLIVLKRMTVIQPLCVMIVCPIEVFAIKYKFSDKWTKFKANEEGWFSVWIPELNNALQQNNSEYIIRLLETLKTCLNWPLTEVIVRNDVLSSLLTCLSSNIPRAQSMALDSIHILLTRPYSNESHYQMTIDRVFDNMDLLDSVYESLLFDPTDDIDETKYPIIKKFVDMISCLYVCVPKIKETNGQIQKYFKLVLKTTYNPSLIVSGLTLDLWCTCLRNDEYLPKLEKYVIPDLLQFAADALVYYEQIDGHISKKFAEIDFQSKSEFQTFCSTYRKRIRDIIRLISCVELDLTYDWLNNRLNNYFSSPFGQQVLSSTFLDHKLEPYLGALSQYMIVECFINGCIRWKIWYPTGDDYDEKLDSILQKLEILSNQLIALNLREPLLLKKQIQNFALFLTMLKDNVLFTLLEKIITSATMDYPEINLEERGAESDAVRDLRYACGIELNRMALLMPESLKKIYPDLESVIARIMPNLSYHEKISFKSFLLIIVLKSSLDMKEERFAAIVDPELLAWSDKTTVVGLSDLHWFMERLGIVQIAEYFQRRDIDENSDLLSIPIDDEGKELKSELTKRWQSLFPVRATRMFIHYSMQSIKTDEEFKMLQDLWRPRIVPILPYITRLLYQLQSYHDPDNWKGLPTVVQSFVKYSTIERFWEAGASNKSKDEFIDEHMKAMQTLRDFADSVGHIIRYTREYTLLVLSAISSLGSVFYLLDESPDLLLNSIAIFKPGSNEISPGVSTHGWKHIMNIAIRPILKGCPKDCLGKFMPAFLPKLFEILDLLLCQKWSSHMNDMDMNPVPTDDDQMTEEILEENLLRQLTTVVVRIVIDCVGQGNANPNSAKSRLNNHQMEMRKIIFNDLNTLAPFLKLLNHLISFKDTKCSFNSILVMKCCLTSVLNQNNTVDEYFTFEVMKNLLLNVLCNSAFKDSFHEALYAFTVIFLTLCKEYPSARAFLFEISNGYNIDELYRNLRSVDEYKTQRALMIDFIDWVKSTSGKEDGNVDHAGDERKRQEKREAILKKANERLIKKNKENGDMLDDPNIEDGAVGNLFDDN
B2: mNeonGreen-Pho4_(3-200), unphosphorylated (domain or fragment)
chain: RTTSEGIHGFVDDLEPKSSILDKVGDFITVNTKRHDGREDFNEQNDELNSQENHNSSENGNENENEQDSLALDDLDRAFELVEGMDMDWMMPSHAHHSPATTATIKPRLLYSPLIHTQSAVPVTISPNLVATATSTTSANKVTKNKSNSSPYLNKRRGKPGPDSATSLFELPDSVIPTPKPKPKPKQYPKVILPSNST
B3: mNeonGreen-pPho4_(3-200) R2mut (domain or fragment)
chain: RTTSEGIHGFVDDLEPKSSILDKVGDFITVNTKRHDGREDFNEQNDELNSQENHNSSENGNENENEQDSLALDDLDRAFELVEGMDMDWMMPSHAHHSPATTATIKPRLLGSPGGSGQSAVPVTISPNLVATATSTTSANKVTKNKSNSSPYLNKRRGKPGPDSATSLFELPDSVIPTPKPKPKPKQYPKVILPSNST
modifications: phosphorylated in vitro by Pho80-Pho85: pS100, pS114, pS128, pS152
B4: mNeonGreen-pPho4_(3-200) S128A (domain or fragment)
chain: RTTSEGIHGFVDDLEPKSSILDKVGDFITVNTKRHDGREDFNEQNDELNSQENHNSSENGNENENEQDSLALDDLDRAFELVEGMDMDWMMPSHAHHSPATTATIKPRLLYSPLIHTQSAVPVTIAPNLVATATSTTSANKVTKNKSNSSPYLNKRRGKPGPDSATSLFELPDSVIPTPKPKPKPKQYPKVILPSNST
modifications: phosphorylated in vitro by Pho80-Pho85: pS100, pS114, pS152
B5: mNeonGreen-pPho4_(3-200) S114/128AA (domain or fragment)
chain: RTTSEGIHGFVDDLEPKSSILDKVGDFITVNTKRHDGREDFNEQNDELNSQENHNSSENGNENENEQDSLALDDLDRAFELVEGMDMDWMMPSHAHHSPATTATIKPRLLYAPLIHTQSAVPVTIAPNLVATATSTTSANKVTKNKSNSSPYLNKRRGKPGPDSATSLFELPDSVIPTPKPKPKPKQYPKVILPSNST
modifications: phosphorylated in vitro by Pho80-Pho85: pS100, pS152
B6: mNeonGreen-pPho4_(3-200) R3mut (domain or fragment)
chain: RTTSEGIHGFVDDLEPKSSILDKVGDFITVNTKRHDGREDFNEQNDELNSQENHNSSENGNENENEQDSLALDDLDRAFELVEGMDMDWMMPSHAHHSPATTATIKPRLLYSPLIHTQSGGSGGSSPNLVATATSTTSANKVTKNKSNSSPYLNKRRGKPGPDSATSLFELPDSVIPTPKPKPKPKQYPKVILPSNST
modifications: phosphorylated in vitro by Pho80-Pho85: pS100, pS114, pS128, pS152
B7: mNeonGreen-pPho4_(3-200) S100/152AA (domain or fragment)
chain: RTTSEGIHGFVDDLEPKSSILDKVGDFITVNTKRHDGREDFNEQNDELNSQENHNSSENGNENENEQDSLALDDLDRAFELVEGMDMDWMMPSHAHHAPATTATIKPRLLYSPLIHTQSAVPVTISPNLVATATSTTSANKVTKNKSNSAPYLNKRRGKPGPDSATSLFELPDSVIPTPKPKPKPKQYPKVILPSNST
modifications: phosphorylated in vitro by Pho80-Pho85: pS114, pS128
B8: mNeonGreen-pPho4_(3-200) R4mut (L131A/T134A) (domain or fragment)
chain: RTTSEGIHGFVDDLEPKSSILDKVGDFITVNTKRHDGREDFNEQNDELNSQENHNSSENGNENENEQDSLALDDLDRAFELVEGMDMDWMMPSHAHHSPATTATIKPRLLYSPLIHTQSAVPVTISPNAVAAATSTTSANKVTKNKSNSSPYLNKRRGKPGPDSATSLFELPDSVIPTPKPKPKPKQYPKVILPSNST
modifications: phosphorylated in vitro by Pho80-Pho85: pS100, pS114, pS128, pS152
B9: mNeonGreen-pPho4_(3-200) 102–107GKK (domain or fragment)
chain: RTTSEGIHGFVDDLEPKSSILDKVGDFITVNTKRHDGREDFNEQNDELNSQENHNSSENGNENENEQDSLALDDLDRAFELVEGMDMDWMMPSHAHHSPGKKGKKKPRLLYSPLIHTQSAVPVTISPNLVATATSTTSANKVTKNKSNSSPYLNKRRGKPGPDSATSLFELPDSVIPTPKPKPKPKQYPKVILPSNST
modifications: phosphorylated in vitro by Pho80-Pho85: pS100, pS114, pS128, pS152
B10: mNeonGreen-pPho4_(3-200) S114A (domain or fragment)
chain: RTTSEGIHGFVDDLEPKSSILDKVGDFITVNTKRHDGREDFNEQNDELNSQENHNSSENGNENENEQDSLALDDLDRAFELVEGMDMDWMMPSHAHHSPATTATIKPRLLYAPLIHTQSAVPVTISPNLVATATSTTSANKVTKNKSNSSPYLNKRRGKPGPDSATSLFELPDSVIPTPKPKPKPKQYPKVILPSNST
modifications: phosphorylated in vitro by Pho80-Pho85: pS100, pS128, pS152

One experiment has as its target Pho4_(1-200) S114/128DD and Pho4_(1-200) S114/128EE. Briefly: fluorescence polarisation.
Settings: not given
With B1, the Kd was in the range of 2000 to 3000 nM.

Another experiment has as its target T1, Msn5 (S. cerevisiae exportin), wild type. Briefly: fluorescence polarisation.
Settings: not given
In turn, B2 yielded a Kd of 2400 nM.
As to B3, binding was characterised by a dissociation constant (Kd) of 800 nM. This Kd is about 3-fold lower than that of the molecule before.
In turn, B4 yielded a Kd of 120 nM.
B5 showed a Kd of 1000 nM. Against the preceding molecule, the Kd is about 8.3-fold higher.
Molecule B6 yielded a Kd of 280 nM. This Kd is about 3.6-fold lower than that of the molecule before.
Still for that read-out and setting: in the case of B7 it was 46 nM; in that of B8, 150 nM; in that of B9, 110 nM.
B10 returned a Kd of 250 nM.

The next experiment addresses Msn5 (Kap142) (UniProt P52918). The experiment in a line: fluorescence polarization titration, mNeonG-pPho4. The settings on record: reference: wild-type pPho4; sites S114.
Consider “Pho4 3-200 (from UniProt P07270) pPho4 S114A”, for which the KD result is “weaker; reference 44[26,71]”.
